According to US20220056140A1 (INVECTYS, published 2022):

Columns and labels:
[1] = molecular target: HLA-G6 recombinant protein (without β2M association) (human, UniProt P17693 25-227); assay: flow cytometry titration on HLA-G6 coated Bioplex beads
Protocol: (§1) The binding detection was carried out by flow cytometry using a PE-conjugated goat anti-mouse antibody. […] Measurements were performed in triplicate (n=3); error bars indicate SD.
(§2) Flow cytometry analyses were performed using LSR FORTESSA (Beckton Dickinson, Le Pont-de-Claix, France); data were analyzed with FlowJo X software (Tree star, Ashland, USA).

[2] = molecular target: T1, Control peptide; assay: flow cytometry on Bioplex beads coated with the mutated peptide, PE-conjugated goat anti-mouse antibody
T1 peptide: CTHHPVADAEATLRC
Protocol: as §1
As specificity (negative) controls, uncoupled beads or beads coated with a mutated peptide [sequence]

[3] = molecular target: T2, HLA-G5 recombinant protein (without β2M association) (human, UniProt P17693-5 25-319); assay: flow cytometry titration on β2M-free HLA-G5 coated Bioplex beads
T2 construct: domain: α1α2α3 domains of HLA-G5; No β2M; Coupled to Bioplex beads; also called hβ2M-free HLA-G5; recombinant HLA-G5 protein
Protocol: as §1, §2

- EC50 [1]: 0.12 µg/mL
- binding result [2]: no binding (tested: 250 ng/ml)
- EC50 [3]: 0.028 µg/mL
B1: anti-HLA-G monoclonal antibody 15E7 (antibody, V domains shown)
VH: QVQLQQPGAELVRPGSSVKLSCKASGYTFTDYWMDWVKQRPGQGLEWIGTIYPSDSSTHYNQEFKGKATMTVDKSSSTAYMHLSSLTSEDSAVYYCAREGLAGVFYFDYWGQGTTLTVSS
VL: DVLMTQIPFSLPVSLGDQASISCRSSQSIVHRSGNTYLEWYLQKPGQSPKLLIYKVSNRFSGVPDRFSGSGSGTDFTLKISRVEAEDLGVYYCFQGSHLPPTFGGTTLEIK
notes: also called 15E7 mAb; 15E7 Mab
